The nature of this data set: soluble on expression in E. coli; label from the status in PepcDB or PDB records.
For “MGSDKIHHHHHHMSILEVRGIEKTYSGKRILKAVSFDLESGKLTVLGGLNGIGKSTLIKMMSGDIRPDSGEIVFDGHHVELRSIVEARRIGLSAVYQEYMLVPDLTVAENIFLGSGKFTISRKKMNSEASRLLSKFGLSFDPSSKVSSLSSDEQALLEFAAAVFSEPKVLMIDDLFSVLQTESRKRLLQMIEVIKNKGTAVLVVTTDPDLMLMADHLLFMDESGVEYLPCPIERGAILERMGASSDFSILPAEGELLIEISNLAGSGQDLSLKRGEVLNIFCESGELVRAFTRAMIRQDPFTDNSVPLFREAKSFFDRFSSRSSSTPAEKYFCSNLKNTGLVSQVMLKKSGSFKSSKSLKKSFILNKESVVSVKSFLAGLERIPGFSGLVSEEDKKLSQLRFDACDLYVFVRPLLGLDPVSVNALSTVLQEIVNRSKAAVIISDEAGSSMLSTRKMRSSE”, the “soluble on expression in E. coli” value is given as “not soluble”.
To “MSLAMQDFRPGVYRHYKGDHYLALGLARADETDEVVVVYTRLYARAGLPMSTRLLRIWNETVDTGAGPQPRFAYVGHVTPEQGEGHHHHHH” belongs “soluble”; to “MGSDKIHHHHHHMSQFVVDSSFWSLFPDAKIGVLLLKDYKTPAQSPDELVKLLEESNGIAQKFLTEDTFSENEVIRTYRQAYQKFKTKKGARSSIEALLKRSTSDRPVTTISPLVDIYNAASLRFGLPCGAEDLDTFVGNLQLTVTEGGDEFYLIGDETNNPTLPGEVCYKDDKGAVCRCFNWRDGERTMITDETKNAFLVMELVNSDRVEDLENALDFISQQAETFLGVVPEKYLLDCDRPGIAL”, “not soluble”; to “MFVRSLFLALLLATIVAADIDFSTCARMDVPILKKAAQGLCITSCSMQNCGTGSCKKRSGRPTCVCYRCANGGGDIPLGALIKRG”, “not soluble”.
For “MADYKDIVLIQSTSSLSASLGDRVTISCRASQDIRNYLNWYQQKPDGTVKLLIYYTSRLLPGVPSRFSGSGSGTDYSLTISNLEQEDIGTYFCQQGNTLPWTFGGGTKLEIRRGGGGSGGGGSGGGGSGGGGSEVQLQQSGPELVKPGASVKISCKDSGYAFSSSWMNWVKQRPGQGPEWIGRIYPGDGDTNYNGKFKGKATLTADKSSSTAYMQLSSLTSVDSAVYFCARSGLLRYAMDYWGQGTSVTVSS”, the “soluble on expression in E. coli” value is “soluble”.
Turning to “MGSDKIHHHHHHMKLAKFDTQPLPHFLMESATVDYAHADIRKLAAALSSDDSTATARHCFEWVRDHIEHSMDFHREEVTCAASDVLQQGTGLCTAKSHLLVALWRANQIPAGFCYQRLTLDGPNPPYCTHGFTAVWLNGRGWYRCDARGNSKPGIHCEFTPGQENLAFSSRYDGERTYPEVWAEPWPDLLTAMEKLQNISQYRSHPIDARPPAADLCVSESAAPNME”, the “soluble on expression in E. coli” value was “not soluble”.
Regarding “MSRTYLELSQDDGSAHKFYEVTVQGQVVTVRYGRIGAAGQTQTSTFPTAQKAEAAAAKKIGEKVRKGYEAAVQGQRAPRAVSRRQVASAPSTARAVAPVLWRFRTGSAAFGIHIDEDRCWVGNQAGDVYTLAHGGEVLARYQLPDGVKCLVADDFWIYAGCDDGRVYDLSSKLPFAAYDIAADVDIFWLDIHEGVLNVADRAGRLTVIDHEDEHQWSRGGRGEHAWMVRADDRAVYHGHTRGVTAHSPDGGVELWHTPTQGAVLFGWQEDDAVYAGTARHTVQRLSKATGGIEATYHCDSPVYSCATSPGGRFVFAGDSASSVYCFDRDGTRLWKLGTGGGSALSMQYRDERLFLVTTDGSLVCVDASEAAVTAAQQGSVPVVRDVKLAATLPTYAPATAATAVTTVTVAPAGSVVVECVQENGRTRIHVVTEGYDRSWNVQFPRAIREPGARYVVDALHAASGGFYRVRGDIRRLRLEHHHHHH”, the “soluble on expression in E. coli” value was “not soluble”.
To “MRVAFFGTPLWAVPVLDALRKRHQVVLVVSQPDKPQGRGLRPAPSPVARYAEAEGLPLLRPARLREEAFLEALRQAAPEVAVVAAYGKLIPKEALDIPPHGFLNLHPSLLPKYRGAAPVQRALLAGERETGVSIMRLDEGLDTGPLYAVWRTPILPDEDAVALGNRLRDKGVELLLEVLERLPELTPRPQEGEASYAPPLSKEEGRLDFGESAEALYRRHRAVQPWPGSYFFHRGQRVKALRLRPEPGEGEPGVVARVGPEGVVVGTASGLLLLLEVQPEGRRAMPAADWARGYGVAPGTRLGQV” belongs “soluble”.
Take “MGSDKIHHHHHHMKLNTIDYLAPDSAERFVESLRETGFGVLSNHPIQKQLVEDIYKEWYNFFQSEQKHDFLFKSETHDGFFPASISETAKGNNVKDIKEYYHVYPWGRIPDSLRANILAYYEHANTLAAELLSWIEKYTPADVAEKYSIPLPDMIAQSQQTLLRILHYPPMKGDEEMGAIRAAAHEDINLITILPAANEPGLQVKTKTGEWIDVPSDFGSIIINIGDMLQEASGGYFPSTSHRVINPEGTDKTKSRISLPLFLHPNPEVVLSERYTADSYLQERLRELGVI”: the “soluble on expression in E. coli” value is “not soluble”.
As for “MGHHHHHHSHRIVILQGAAGIGKSTLARQVKEAWGRGQLYGDRFQHVFYFSCRELAQSKVVSLAELIGKDGTATPAPIRQILSRPERLLFILDGVDEPGWVLQEPSSELCLHWSQPQPADALLGSLLGKTILPEASFLITARTTALQNLIPSLEQARWVEVLGFSESSRKEYFYRYFT”, the “soluble on expression in E. coli” value is “not soluble”.
As for “MTDVARLLALRSFTELGARQRARALLDAGSFRELLDPFAGVQSPWLERQGIVPQADDGVVVARGLLDGQPAVLAAIEGAFQGGSLGEVSGAKIAGALELAAEDNRNGVPTRALLLLETGGVRLQEANLGLAAIAEIQAAIVDLQRYQPVVAVIAGPVGCFGGMSIAAGLCSYVLVTREARLGLNGPQVIEQEAGIAEYDSRDRPFIWSLTGGEQRFASGLADAYLADDLDEVRTSVLAYFAKGLPARPRCRRAEDYLRRLGDLDTAEQPDAAGVRRLYQGLGQGDAT”, the “soluble on expression in E. coli” value is recorded as “not soluble”.
With “MVQAEGLTKRYRKAVAVEGLTFGVGPGEVYALLGPNGAGKTTTLRLLSTLVRPSAGRALVAGFDVVREPLEVRRNLGLVNGGMRVYERLTGREVLEFFAGFYGLKGRAFLGALDWVVDLLEMEETLDKKVGEMSTGMRQKVVIARAILHRPKVLLLDEATAGLDIFARRALLDFVKAYRDLGHAVIYSTHVMGEAEEVADRVGFLHRGRLVYEGSKEEALALGEGSLERAFVRQVRGA”, the “soluble on expression in E. coli” value is reported as “soluble”.
With “MSDDGSDTSFEEPHGDFDYTLLFEKFNKEVPKMEEVMKAAKKFGASHRHLINKFILEPSMSAKKMNLMFAKHLTTAIWKRHPDTVMQIQTNREEARQLSKLIVKTMNDDEGKGPKPFRPWRFVISTDEKSPTEFVTMTGCGRNSSVISEASDLTKVERALLLVILEEMISSDGTVQMDWVHSQIRHEPCKMPGPKCDIFMAKMMRQRYFLMTDENEVAEITPRILVELEPWLRAKFTGDLKTCELCRKIISRSVYTAECQKCHALCHFNCFKNATIISHQDNVECQKCNQNLSLNEVLKQIDTKKATGVPRSRDTVARSPSPDSDVPKAPSRTQRAKSKSKTPAPVDSDDDMTITPRPTRGKRNQRVPDSDSE”, the “soluble on expression in E. coli” value is recorded as “not soluble”.
As to “SMQPPIAKPGETWILQAKRSDEFNVKDATKWNFQTENYGVWSWKNENATVSKGKLKLTTKRESHQRTFWDGCNQQQVANYPLYYTSGVAKSRATGNYGYYEARIKGASTFPGVSPAFWMYSTIDRSLTKEGDVQYSEIDVVELTQKSAVRESDHDLHNIVVKNGKPTWMRPGSFPQTNHNGYHLPFDPRNDFHTYGVNVTKDKITWYVDGEIVGEKDNLYWHRQMNLTLSQGLRAPHTQWKCNQFYPSANKSAEGFPTSMEVDYVRTWVKV”, the “soluble on expression in E. coli” value was “soluble”.
For “LATMKDVARLAGVSTSTVSHVINKDRFVSEAITAKVEAAIKELNYAPSALARSLKLNQTHTIGMLITASTNPFYSELVRGVERSCFERGYSLVLCNTEGDEQRMNRNLETLMQKRVDGLLLLCTETHQPSREIMQRYPTVPTVMMDWAPFDGDSDLIQDNSLLGGDLATQYLIDKGHTRIACITGPLDKTPARLRLEGYRAAMKRAGLNIPDGYEVTGDFEFNGGFDAMRQLLSHPLRPQAVFTGNDAMAVGVYQALYQAELQVPQDIAVIGYDDIELASFMTPPLTTIHQPKDELGELAIDVLIHRITQPTLQQQRLQLTPILMERGSA” the value was “soluble”.
To “MAHHHHHHMGCKSSAEAKPSETRSPSARLSRNSVTTPPDRMDTAHRLHPAAREEVDLDPENVAGAEHISPSVVTARSSSRVAAVTLHGICGYTHNGVPAYSNGTSNTWPWMKNFCEGIFMGYQWQCVEFARRWLWVTHRLLLPKRSCAYCFSSCTYAYRLKKDSSLISQRARAAMHKAAAETGAGSPSSSKEVNAATEARHLGPCTSRDTWEKVPAKFVKQGSLVPPVADSLIVYPISWGSPWGHIGVITAVDLDRHRVYVADQNRYFHDWNG” belongs “soluble”; to “MRVRIVGAPSLLVGVISDTHDNLALARRAGEIFARERVEAVIHLGDYVAPFTLAELLGVVGGKAVFYGVFGNNDGERLGLSRVAGGFGASLLDPPATVSIGGRRLLLLHGFGSPENTVELVDALASSGRWDAVLYGHTHKARVERVGGSLVLNPGDGGGSLEKPSAAILDLESMEARLVSLEGAAALEHHHHHH”, “not soluble”; to “DQVSRFRLLGGNQVRPLAGGDEAYPAMMQAIREARVSIAMQSYIFDCDPIGREMAQALVEAQQRGVQVRVLIDAIGSKYSRPPIVRTLVRGGVRTARFMTNPLGVMRMPYANLRSHRKILVVDGHVGFTGGMNIRAAFVTALAGKAANGDTHFRLEGPVVAQLMAVFAHDWNFTTRESLEGPTWFPPAPERAPGSVPMRCVASGPDSALGSTHKM”, “not soluble”.
Consider “TYSLRTFFVRESAEGLTQGELMKLIKEIVENEDKRKPYSDQEIANILKEKGFKVARRTVAKYREMLGIPSSRERRI”, for which the “soluble on expression in E. coli” value is “soluble”.
With “MSLKQNGGLTDLTGSVAFGTTPLSPGVTDRLYYPSRRNKGAALSDDKACFLSVPRSGGKGPPPEYDGAGRVTLFSGYLFDRERLARKLGGDHSWPDVRLAAAWIAHHGLDRLADLAGDYALSHWDPGARRLFLAVAPMGSRLLYWHRVGTICHFATTVAGLHRIPDIPRVVDPLHLTARFSAMVGDPTRTVYKDIHQIVPGDMLVADVNANRYVPLWRPDAERRLRLANEREYLEAADELLERAVARRLQAAHAPAFLSSGGLDSAAMLTTASRLAGDRKVRSYTIVPSPGLCVTADRGWYGDERAKVADLAASHTNLDIRLCHSLVPSPLETNPAHLFMATGLPCMIANQIGWLDIAFQQMQQAGHDAVLSGQSGNFTFSYDGNLCFADLIREGRPLTALRLLAQVARYKQQGFAPMVRHRVVVPLLPDAFYYGQRRWRGRPHPLADRTLTRPGWREKVGLDDYLADHGEQPFQERDSRSRQQIIHFMLKRRAMTLPNAHALETVRGTHYRDVYADRDLLEFILAIPRDQFILDGRNRSLARRLLAMRGVPDSIVNERAIGQEGHHHHHH”, the “soluble on expression in E. coli” value was “not soluble”.
To “MSLEKQFFHPDRVKYDKDCFTIEGKDIFILSAAFHYFRCPQELWRDRFRKIKEAGFNTVETYVPWNWHERNMPKSVDDYSQCNFDDLKAWLHMAHEEFGLYTIVRPGPFICAEWAGGAYPRWLAKFCPDSYDTSFWLRSNHPEHMKWSEHWYNAVCRVFSEEQLTRKQPGEKGIIMVQLENEYIYFDMESEKKEEFLRVLSDACIRNGIDVPLFTCVTPEVRGSHDPVISQLFDMDNQYVWWNMHEAKSRIEKLKAEQPNAPAFVCELQGGWFSTVGGRLSEDSYLDGRHARGMALMAMAGGSTGLNYYMFFGGTHFAGWGARRMTTTYDYGAPLKENGGVGEKYAAVKGIGEVVDKFGGLLVRSRPVRFDVQGADNLTIGIRRAADGTLFVFLLNRDKKQAFRQLVNLTVEGKPMRIDCQLAALDSKLLVVHAGTDTVEWYPREQTLPEREGHHHHHH” belongs “soluble”.

The record behind these values is the DeepSol protein solubility set.
